First the molecules themselves.
B1: Eterna 6148811 (Same State NG 2) (ssRNA)
RNA: UGAAUCAAUACAGGAUAUGGUGACGCACAUGAGGAUCACCCAUGUCCGCAGCGUGCUCAGCACGCCCAGAAGGGUAUUGAUCCG
B2: Eterna 1142 (Exclusion - Theophylline A) (ssRNA)
RNA: UGCAUCAGUGCCUUUGAUCUAUUCCUGGAUACCAGAUCCUACUUGAUCCCUUGGCAGCCAUACGGGAGUGAUGUUCCAUGUAUCC
B3: Eterna 12517 (Exclusion 2) (ssRNA)
RNA: AAUGGCUGAGGAUAUACACUCACGUCUAAAAGGUUCAAAUGACAUGAGGAUCACCCAUGUAGAAGGCAGCCCGA
B4: Eterna 7643338 (Exclusion - Arginine B) (ssRNA)
RNA: UUAUAUUAUCGAAGGAGCGUCACAUGAGGAUCACCCAUGUACAUGAGGAUCACCCAUGUGUGGCAGGUAGGUCGCGAUAUAUAAC
B5: Eterna 14907 (Exclusion 2) (ssRNA)
RNA: GUGUAGUUAGGAUAUGCUGGAAUCUAGCGAAGCUAGGUUCCACAUGAGGAUCACCCAUGUAGAAGGGACUACAC
B6: Eterna 7699730 (Exclusion - Theophylline A) (ssRNA)
RNA: AGAAACUUGUAUGUCGGCCCUGCGCGCGAUACCAGCCAAAUGGAUGGCCCUUGGCAGCGCAGCGAGUGAUGUUCGCCCGGCUGAC
B7: Eterna 7683541 (Same State - FMN B) (ssRNA)
RNA: UAUUAAUUGUCAGGAUAUCGUAAACGAGUGAUGUUCGUAUAUCGACGAUAGUCGAUUCUAUCUAAACGAGAAGGGACAUUAUUUA
B8: Eterna 7682723 (Same State - Arginine A) (ssRNA)
RNA: AAAUUCUUUUUUUUAUUUAACUUUUCAGAAGGAGCGUGGUAGUUCACAGGUAGGUCGCUGAAUUUUGGACUAGUGAUGUUAGUUA
B9: Eterna 15907 (Sensor v3, turn-off variant 2) (ssRNA)
RNA: AGUAACCGUCACGAAAGUGAUGGUUACGCAAGUAAAUGUACAUGAGGAUCACCCAUGUCCUCAUUUGCUCGUCUUAU
B10: Eterna 6147986 (Exclusion NG 1) (ssRNA)
RNA: GCAAUGUGAUAAGGAUAUCCAAUGGCAUCCCUAGGAGAAGGUAUCACAUGAGGAUCACCCAUGUGAAGGACGGGUUAUCGCAAA
B11: Eterna 6102128 (Same State NG 3) (ssRNA)
RNA: AAAACAUGAGGAUCACCCAUGUAAAUAUCGGUUAAUUGUUGUGAGGAUAUACUAAAUUUUAAGAAGUAGAAGGCACUGGGUACA
B12: Eterna 6453430 (Inverted Small Loop Exclusion NG 3) (ssRNA)
RNA: AGGUAAGACUUAAUUGUGCUGGUGAGAAGGCAAAUGGUUGUGAUUAACAUGAGGAUCACCCAUGUUGAGGAUAUCAUCGGUAUC
B13: Eterna 5942428 (Same State NG 3) (ssRNA)
RNA: GUGGUCAGACAUGAGGAUCACCCAUGUGGAAUAAAUAACACACAGGAUAUCAAAUAUAAAAUAUAUGAGAAGGGUGGAUUGGUG
B14: Eterna 6451279 (Small Loop Same State NG 3) (ssRNA)
RNA: ACAUGAGGAUCACCCAUGUAAAGCGAGGAUAUUUCACUGCACAUGAGGUUCGCCCAUGUUCUGCGGAAGAAGGUGCAAAUAAUU
B15: Eterna 10216 (Sensor for hsa-mir-208a) (ssRNA)
RNA: CUCAAAACAAGUUGCAGUGUUCGUCUUUAACAUGAGGAUCACCCAUGUAAUAACCCAGUGGAAGCGCUCGGGCCACC
B16: Eterna 11880 (Sensor v3, turn-off variant 2) (ssRNA)
RNA: AGAAAUGCCCAUGGCCGCAAGCUUUUCGCUUGUCUUACCACAUGAGGAUCACCCAUGUGACAUGGGCUCCUUAUAAU
B17: Eterna 13246 (Sensor for hsa-mir-208a) (ssRNA)
RNA: UGGAUCUAGGCUUGCCUGGGUCCAUGUUGACAUGAGGAUCACCCAUGUGUAUUUUAUAAGCUUUUUGUUUGUCAACA
B18: Eterna 6082084 (Exclusion 3) (ssRNA)
RNA: AACACGUGAGGAUAUACAUGAGGAUCACCCAUGUUGGUACAAUCCUGUCCGACUAUCCGUAGAAGGCAUUGACU
B19: Eterna 5811984 (Exclusion 6) (ssRNA)
RNA: CUUAGUAUCUAGGAUAUCUAGUACAUAGUAUCUAGAGAAGGAGAUACAUGAGGAUCACCCAUGUUCUGUGUUCU
B20: Eterna 7639274 (Exclusion - Theophylline B) (ssRNA)
RNA: UUAUUUAUAAUGGAUACCAGUGCUGUGGCCCGGCAUCCUGACAUGAGGAUCACCCAUGUGUACCCUUGGCAGCUGUUAUGGGUUU
B21: Eterna 7627711 (Same State - Tryptophan B) (ssRNA)
RNA: GGUUACUCUACGGCCGCCACUGAUUAAUUAUAAUCCUGUACAUAAACAUGAGGAUCACCCAUGUACAGGACCGGGUAGUGUAACC
B22: Eterna 7730854 (Same State - Tryptophan A) (ssRNA)
RNA: UACAUGAGGAUCACCCAUGUCCCAUGUGAACGAGGACCGGUACGGCCGCCACUCGACCGAGGCGGCACAUGAGGAUCACCCGCAU

One data set concerns the target T1, MS2 coat protein, dlFG mutant (Escherichia phage MS2, UniProt P03612, del68-81insG). As to the kind of experiment: 4 mM Mg2+; no ligand; RNA-MaP array; 100 mM Tris-HCl pH 7.5, 80 mM KCl, 4 mM MgCl2, 0.1 mg/mL BSA, 1 mM DTT, 0.01 mg/mL yeast tRNA, 0.01% Tween-20; protein 1.5 nM to 3 uM; 37 C (Table S3). The note with it: chain copies: 2; label: tethered by stalled RNA polymerase.
As to B1, the dissociation constant (Kd) was determined as 816 nM.
The same measure, in the same setting: the same measure for B2: > 3000 nM; for B3: 103 nM; for B4: 226 nM.
On the same count and under the same terms, the same measure for B5: 253 nM.
Still for that read-out and setting: the same measure for B6: > 3000 nM.
On to B7, for which the Kd is > 3000 nM.
On the same count and under the same terms, the same measure for B8: > 3000 nM; for B9: 204 nM; for B10: 54.1 nM.
B11 registered a Kd of 24.4 nM.
Turning to B12, the Kd is 500 nM.
Regarding B13, the Kd worked out at 387 nM.
Consider B14, for which binding was characterised by a dissociation constant (Kd) of 82.6 nM.

The next data set concerns the target T1, MS2 coat protein, dlFG mutant. As to the kind of experiment: 4 mM Mg2+; miR-208a RNA 100 nM (AU…UUGU); RNA-MaP array; 100 mM Tris-HCl pH 7.5, 80 mM KCl, 4 mM MgCl2, 0.1 mg/mL BSA, 1 mM DTT, 0.01 mg/mL yeast tRNA, 0.01% Tween-20; protein 1.5 nM to 3 uM; 37 C (Table S3). The note with it: chain copies: 2; label: tethered by stalled RNA polymerase.
For the molecule B15, binding was characterised by a dissociation constant (Kd) of 21.1 nM.
Molecule B16 showed a Kd of 10.7 nM.
On the same count and under the same terms, the same measure for B17: 13.4 nM.

The target is the same in a further data set. Briefly: 4 mM Mg2+; FMN 200 uM; RNA-MaP array; 100 mM Tris-HCl pH 7.5, 80 mM KCl, 4 mM MgCl2, 0.1 mg/mL BSA, 1 mM DTT, 0.01 mg/mL yeast tRNA, 0.01% Tween-20; protein 1.5 nM to 3 uM; 37 C (Table S3). As to conditions: chain copies: 2; label: tethered by stalled RNA polymerase.
The molecule B18 showed a dissociation constant Kd of 34.1 nM.
On the same count and under the same terms, the same measure for B19: 65.6 nM.

A further data set shares this target. As to the kind of experiment: 4 mM Mg2+; theophylline 2 mM; RNA-MaP array; 100 mM Tris-HCl pH 7.5, 80 mM KCl, 4 mM MgCl2, 0.1 mg/mL BSA, 1 mM DTT, 0.01 mg/mL yeast tRNA, 0.01% Tween-20; protein 1.5 nM to 3 uM; 37 C (Table S3). The note with it: chain copies: 2; label: tethered by stalled RNA polymerase.
For the molecule B20, the Kd is 24.2 nM.

The target is the same in another data set. As to the kind of experiment: 4 mM Mg2+; L-tryptophan 2.4 mM; RNA-MaP array; 100 mM Tris-HCl pH 7.5, 80 mM KCl, 4 mM MgCl2, 0.1 mg/mL BSA, 1 mM DTT, 0.01 mg/mL yeast tRNA, 0.01% Tween-20; protein 1.5 nM to 3 uM; 37 C (Table S3). As to conditions: chain copies: 2; label: tethered by stalled RNA polymerase.
Molecule B21 yielded an equilibrium dissociation constant (Kd) of 29.1 nM.
Same read-out and setting: the same measure for B22: 1580 nM.

The record behind these values is paper PMC9170038, “Crowdsourced RNA design discovers diverse, reversible, efficient, self-contained molecular switches”.
